Data taken from publication PMC3439536.

Molecular target: Human CR2 SCR1-4-BCCP, site-specifically biotinylated (human) (UniProt P20023)
Experiment: SPR

Sequence of Human CR2 SCR1-4-BCCP, site-specifically biotinylated (human) (P20023 21-273): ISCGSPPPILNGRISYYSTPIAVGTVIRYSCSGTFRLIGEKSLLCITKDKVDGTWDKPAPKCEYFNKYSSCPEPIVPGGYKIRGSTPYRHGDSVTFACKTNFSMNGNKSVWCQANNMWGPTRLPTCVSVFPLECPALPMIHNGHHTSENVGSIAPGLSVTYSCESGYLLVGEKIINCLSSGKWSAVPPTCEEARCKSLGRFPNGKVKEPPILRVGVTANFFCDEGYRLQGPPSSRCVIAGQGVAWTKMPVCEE
Sequence of 70 kDa fragment of the Epstein-Barr virus gp350/220 coat protein (P03200 whole entry, the tested form may be a part): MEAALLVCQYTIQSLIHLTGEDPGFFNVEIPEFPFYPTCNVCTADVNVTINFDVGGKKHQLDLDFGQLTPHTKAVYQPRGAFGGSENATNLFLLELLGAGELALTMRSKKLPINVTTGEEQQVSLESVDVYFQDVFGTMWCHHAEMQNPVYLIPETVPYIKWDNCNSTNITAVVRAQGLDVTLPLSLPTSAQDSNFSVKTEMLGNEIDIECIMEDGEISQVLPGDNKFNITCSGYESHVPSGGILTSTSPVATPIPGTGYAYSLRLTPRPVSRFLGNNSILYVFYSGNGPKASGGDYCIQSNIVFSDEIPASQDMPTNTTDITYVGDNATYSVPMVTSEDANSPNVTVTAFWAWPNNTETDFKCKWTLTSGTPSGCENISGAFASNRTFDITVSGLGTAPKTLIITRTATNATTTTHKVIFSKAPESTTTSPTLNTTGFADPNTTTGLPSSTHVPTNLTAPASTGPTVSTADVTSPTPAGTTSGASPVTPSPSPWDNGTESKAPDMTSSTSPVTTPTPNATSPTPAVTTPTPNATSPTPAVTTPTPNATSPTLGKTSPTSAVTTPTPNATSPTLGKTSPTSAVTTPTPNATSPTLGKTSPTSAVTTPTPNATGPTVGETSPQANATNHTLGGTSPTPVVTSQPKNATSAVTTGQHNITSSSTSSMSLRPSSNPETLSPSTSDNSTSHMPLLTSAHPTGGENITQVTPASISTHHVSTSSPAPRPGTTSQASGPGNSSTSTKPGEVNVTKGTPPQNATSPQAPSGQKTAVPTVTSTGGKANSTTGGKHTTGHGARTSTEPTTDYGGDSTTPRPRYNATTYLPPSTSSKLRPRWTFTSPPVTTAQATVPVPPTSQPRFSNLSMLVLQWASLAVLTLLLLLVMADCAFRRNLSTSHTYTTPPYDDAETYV

Substance: 70 kDa fragment of the Epstein-Barr virus gp350/220 coat protein (from UniProt P03200-1 1-907) (domain or fragment)
- KD1 (higher affinity site, two-site model): 0.417 µM
